Data reported in the domain aggregation screens of Martell et al. (2025).

Assay: soluble fraction after stress (log2 fold change); higher = more stays soluble; pooled small domains, quantitative proteomics
Conditions: stress: pH 4
Summary of the method: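 High-throughput quantitative proteomics was run on pooled custom libraries of small protein domains following pH 4 stress. Fold changes are on a log2 scale; higher values mean more of a domain remained soluble. The fold change in soluble amount is taken as a measure of aggregation propensity.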

| Sequence | soluble fraction (log2) |
| --- | --- |
| HMTAQLSITLNGETRRAAAGSIADLVRSLELDPAKVAVERNGLIVPRSTLAEVALGDGDVLEIVHFV | -0.4 |
| HMLSLDDAAFERYDLTMREREVLLLLLNRLTYEEIAERLFISTNTVKTHVGNVYKKTGVSSRKELVSK | -0.953 |
| HMNETSRTRALNILGLKATATQEDIKKAYRSLAKEYHPDKLVGVSEGVKKISEEKFREINEAYEYLI | -0.00502 |
| HMVPVSIYAYNKIKTAILNNELMPGEKLVEASLAETLNMSRTPIREALRQLEQEGFVTYYPQKGSIVSH | -0.91 |
| HMGQAVTVPELKGLSFDEAIEKLDDAGLKYEVVDSNYVEDMKPGTVFETLPEAGSRVKPRRIVFLTINAF | -0.689 |
| HMKEDNPIVLINLQAKEGEWVFKGTGLPYVGKYHQHKNGEYMIGIGVLNLNHELKPDEIIIPNPNK | 0.0576 |
| HMPMTLGENIARLRTQKDWSQGDLADALGISRQSISKWETDTSIPELEKLIKLSELFGVTLDQLVRGE | -0.615 |
| HMTKVKIDRLFSIVQMLVNRKSVTAKELADYFNVSVRTIYRDIEILSANGIPIYATQGKGGGISILEN | -0.663 |
| HMTTLEGIEKYLGSGMIRGIGPAYAGRLTKVFGEAVFDVIEQSPERLREVEGIGPKRVSRIVSGWAEQ | -0.707 |
| HMLDFLVSKYESELLADLLWSLGVVAVEEREATGDLVTLRTSLGDDHSFTRELVQEKFPDVIVSTAL | -2.23 |
| HMELKFIGEAVNNPKRPLIAILGGAKVSDKIGVIENLLTKADKILIGGAMMFTFLKAEGKNIGTSLVED | -0.0167 |
| HMGETPEILRDWEAAQNAVNDMLSKYAPGGYMGKIIYPLLTPLKERLEAGERTPDLYNAIVEAT | -0.763 |
| HMRREKVLIKLAENLASKVLRTKKSIELEPMTPYERKVIHTTIENISGVKSWSEGENLQRHLIVALDE | 0.188 |
| HMKKKVDSENLLLDILKQMQPQASTNVLRKMLTNQRISVDDQIIHRAKHVVQEGQTVEIHPKP | 0.139 |
| HMDFSVTIKGTSFPVMVSLKKMKQVRLKVFPSGEIKLSAPVGTPEKWIVEYLNDKMSWIEEKMDLFVQ | -0.395 |
| HMTIFGWQQDETGKWYRNADGTFYENGWKEIDGAQYYFDENGYVTTGWLELDGKDYYFDEEGKYDSTKVR | -1.25 |
| HMPSRPIQVASFSKEDNAKRAAEALAKIGVTATPQKSEKAGKAVWGVVVTGDDAMLQKIKDAGFADAYFL | 0.22 |
| HMTQTGEVIRWDAERGFGFIATADGRRHVFFHVRDFRGGAAPGVGLRVGFEEIQVGGKGPRAMDVRPL | -0.491 |
| HMIKEYEVLNYVTYEYDEIKKKLEEDFGIIVLMKEAYSDETPAGIIMDQDVEQGRIFKEGATNTITFTVS | -1.2 |
| HMEQVKFFDAKVITTPPNRLKTRYTPAGNLRPEADWLQSGAIVPVYETSGAGWYRIGYQTWASAEWMQRLD | 0.166 |
| HMDSEQLSGLVNMGFSVYQAKTALEMFDNDIERAANYL | -0.871 |
| HMKAQVKSVLDEIPGVGPTRRKALMKHFTSIEEIKQAEFETLLEAEGMNRAAAQSVYDFFHN | -0.491 |
| HMQEQSSYVGQFGTAATTLRPSGTVELEDGTRIDVVTVGEFIEKGEPVQVVRKDGTWLVVEKRRSK | 0.122 |
| HMKDLQAISERMEEIISFAKANDNEISLFIVQDIIKNKKTGIDEDLLNMALYQIKEQGIKVLPA | -1.05 |
| HMKKLTAEEIQEAKDILEKIQEIPNFKKIFGDDTIKALENSTKTGVLLPDNIISKIHTLMIRFGIK | -0.248 |
| HMNEYHRNISDEEFVRDIKETAIKLKKETLTGVEYSQNGKYHASTIIHRFGSWKKALELAELNTK | 0.257 |

| Sequence | soluble fraction (log2) |
| --- | --- |
| HMNLSPADFSSVRNALGLSLSTVAKESGINRNYLSNFEKKKHFLEETAKVKLRDYYMSIDPDAFAAAL | -0.291 |
| HMDASSTGFLGKHVQIVGLVSQPHLNGRRGVASRFDSNRRRYLVRLDEIDGHAEVVAFRPDNLVLSNLL | -0.0982 |
| HMTSNEKARNAASAERRADIVAAARELYEEQGLSKTSVQDITNRMGVARSLFYHYFPDKEAVTSAVLDDYV | -0.102 |
| HMDDPYAGLRQRAYLFLRERDGAVPEEELIEHVFGSSGNPALWRPLLRQVLGADDRLDLRADGYWALRG | -0.839 |
| HMDSITEADLLRWAHALSGIARTGLGFTESRYERERYEEVLAVAADILAASSRSHDRAALVDEWLKMVGV | -1.55 |
| HMRQEIIEDSRKLLEESLKRYDLTYQEFIDTLKSKNMNVESTLINIIKNQSSLDLVLRNLGLIAP | -0.869 |
| HMQLGSILAYKFPQFGGIDGAWQVRDDSNGTGPYIAFWDAKTIGRGMPTEDELTAWAQEYEA | -1.38 |
| HMGGWEEGVYVVREGDTLSDIVHDAVKGTEIHPDFILNAIVRVNPSAFVRGNPSWMLAGKKIK | -0.373 |
| HMEVTYQETLRVLYNAIDKLPPQTKEIILIGLDGKDNNEIAATLNISVNTVKTLKKNAYKTLRELLVD | -0.601 |
| HMSYLELENLAEDIKATYDNLSTDLREVFRLSDIEGLSYEEISNKMNIPIGTVRSRLHRARETLLRIFNN | -1.22 |
| HMNVDIVEITKNSSPNQISKVIDIGAIQIVEDLMSFGIMKAIDTPLEDSEIEQLLEKYNLIVDLIE | -2.19 |
| HMKMNRELNQRQIKMLDYLSVNPKTTRKQYTKMMGISFMTSYRDIQELIDKAYIISKGQGRGTYYILAN | -0.0196 |
| HMVNGTPADPYDVLGVESSASPEELRAAWQTLVRQNHPDQLMARGVPLEAVKLAEARLVAINQAWDDLTK | -1.33 |
| HMSTDSTQLLGFNKTGEELPIYKEANEENKFAEIPQNVYVKNFGQNGEFTKIKYLDQEGYVKTAGLK | 0.199 |
| HMNQNHFLDSVVEFAKDEASRAFFQKAVKKLGEGLVEEAMGEVKMREADGSVNSRAPYFIALLENWMENR | -0.128 |
| HMKIPPIMFVRAIMVAGRQSMAIMDIEGVGTGIIVRSGYSFSNGEGKVVRIGPDKVTVNWSGKHLDLAPG | -0.121 |
| HMSQTPDLQQERANLGDNADARIEAVDLWANKFFPEEHADAILQIGQTAKGIEALEFIMSKV | -0.345 |
| HMVDIGQSIRVELIREGKDSHQAVGYLRDGSMVVVNHGRKLIGSTVEVEITSIVPSSAGKVIFAEYLE | -1.05 |
| HMTISDTAYQAFLEQLGVGMVVEHKRFGEGVITGMPKGKIRITFEEGTKSFQARALAESGMLK | -0.824 |
| HMENYYMPVVAGQSEQDAKSMLNAMKLSLSIQVQEQESDSVAKGLAIGTSPAAGSQIRKGSSVILYISKGA | 0.16 |
| HMENTFNENLRRIRKEKKITQEQLAEFVGVSPQAVSKWEMNSFPDASLLPKIAEKLEVSIDELFGLK | -0.225 |
| HMEARNDWAQQSRADAEFGGEKLDENLAVAKKAVEALASPELKTLLEQSGLGNHPEIIRLFYRAGRSLS | -0.122 |
| HMPKPMKATKITLQQEPRIRVDFTYDPLKVQQIKTISGARWSKSLKAWHIPYTKEAFNQLKKLFPNVEIEV | 0.22 |
| HMKSNKEKIYDFIQMHDTAEKEGGVSTTYIAQALSLQRTNVSSLLNALVEEGRIHKSNGRPVLYSIAG | 0.178 |
| HMYDDLEPFDANGRLRWSDKELILAFGRHRGVTLQTLELNDPGYLRWLLSGNGPLEQQDRKRLEDILES | -1.36 |
| HMNGQITPSRAKEIALGHAGVSEGSANFKKIKLDNKNGRPAYEIEFIANNSRYEFEINASNGSIIKFNK | -0.0812 |

| Sequence | soluble fraction (log2) |
| --- | --- |
| HMVMLIVMNHTASQADIDKVIEVVSGMGFTAAPIPGGERTAIGVLGNKGYVDDSTIRDLPGVQQAIHVSKP | -0.301 |
| HMSIVVPDLRGKTLEEARAILKEADLDFEINDSTFSKTARPGTIRDVVPSPGSRVKAGRILFISINGF | -0.0618 |
| HMGRPQISDELRNAIIEVAKDNRDWGYIRIQGQLKYLGYRVSTATIGKVLKKAGLEPQPDRRRK | -0.667 |
| HMDGPELYESMKAIVPDQLDRTIFLTGGAYTPRAQEFLARVPNQQMEKPFEFEALRSLLARLT | -0.199 |
| HMNNIGENIKKYRTKQGLSQEDFAKKSGVKYTTLTKIESGVIKKPSVLVMAKIAKALGVNIEELI | ≥ 0.43 |
| HMSADDLVSRTQAIVAELKDLEGPLLPILHSVQEAFGHVPDEVKPVIAEALNLSRAEVHGVVSFYHDFRAH | -0.571 |
| HMWNGIVDAGKARQHLMNLSQLGVGRRAVAAASDVAETVLMDIRSGTKTRIRARTERQILAVTPEMA | 0.22 |
| HMLISKNLLGFTIKNTSGVTFGTLKDIMWLPSNDVYVIDNNGKEYLIPVISEIVKSINYDKGSITIFP | -0.398 |
| HMTPAIEKTAVIVFINGKKYYVHTVKSGETLYSIAKAYKVDEKVIKEHNPNVADGLRIDQTVKIPVPEQVK | -0.0592 |
| HMGAPLAVGDSVRVVVSGPRAFVYTAPNGALSGAVRNGAAFTVLELSPDNTWARIGSGEWIKVEFLATG | -0.373 |
| HMDIVKVYTTARAGETLASVAKRTGVDVARLAQWNDIPLKRAKQKLKTGKALALWVQREHASAYSNAPP | 0.22 |
| HMEDLMEERKEHLLSVMKDPAYVPMKQKELAMLLNVPKGLREELNQVLDALVAEGSVVMSKRGKYTIPQ | 0.189 |
| HMADIGRMKELIDILNRASAVYYQGKDEIMSNFEYDKLYDELVSLEKESGLVLAGSPTQKVGY | -0.0716 |
| HMERLTVVPELLKRSLSEAQPLVTSARLRLEVSGGAPEDTSRAIVVGQKPPPGTRVQVGTTVIVTVQIQRP | -0.403 |
| HMNLPISDREKELLTLLSKGLLYKEIASKLDITIGTVKQHIHNIYHKLHVSNKTEALNLFNK | 0.172 |
| HMELTDRQKQIIEIVKKQQPISGEKIASILGFARATLRPDFSLLTMSGILQAKPKVGYLINEE | 0.158 |
| HMKQFVVQYYGIDGEVINSVYKNGMSDLTSYEPEKIDGKNFKGWSLSEDSKKVIDENYRINSDVNLYAVYT | 0.15 |
| HMPNYVEMLRLHEAGFSLRQIAKLVSSGRNTVTRTVNIAQEKELSYEEIAQWSSEELENMFKPD | -0.515 |
| HMKKPIYLTIANDIEKKIFNNDYPKNERLPSERNLAEEYGVTRMTIRNSIEYLVSKGLLEKRLGSGNYVKR | ≥ 0.43 |
| HMAVTGRVDLRIKPWGYVSVDGAAKVSSPPTMQLKLAPGRHEIEITNPAGAAVTKTVDVIAGKSVTVQHN | 0.19 |
| HMGRKRLADYGLNDTEQKIVRKIADGLSNREIAQALYLSEGTVKNYITDILGKLELRDRTQIAIFYLREIG | -0.244 |
| HMLNWINSDVLERFNSLTKEKQKAIVADTETRLNGLSQARFKVAKSSSNERLIAEFAIEINEAIMRAAAL | -0.894 |
| HMGELTSILVATKQIEPGETLSSSNTQVKSWISDLIPEGAITNPESVMGRTVSSVIGVGMPVVSLHLR | 0.0354 |
| HMKEPFETMPDVMDAKQIAEALQISKAGAYNLLNSPDFPTLRIGGRKLVMKNELVEWLKSHTNRK | 0.126 |
